B1: Enoblituzumab (antibody, human IgG1, kappa, V domains shown)
VH: EVQLVESGGGLVQPGGSLRLSCAASGFTFSSFGMHWVRQAPGKGLEWVAYISSDSSAIYYADTVKGRFTISRDNAKNSLYLQMNSLRDEDTAVYYCGRGRENIYYGSRLDYWGQGTTVTVSS
VL: DIQLTQSPSFLSASVGDRVTITCKASQNVDTNVAWYQQKPGKAPKALIYSASYRYSGVPSRFSGSGSGTDFTLTISSLQPEDFATYYCQQYNNYPFTFGQGTKLEIKR
B2: ch9B11 (antibody, human IgG1, V domains shown)
VH: EVQLQQSGPELVRPGVSVKISCKGSGYSFTDYAIHWVKQSHAMSLEWIGIINTYYGNTNYNQKFKGKATMTVDKSSSTAYMELARLTSADSAIYYCARSTTTATFYWYFDVWGAGTTVSVSS
VL: DIVLTQSPVTLSVTPGDSVSLSCRASQSINNNLHWYQQKPHESPRLLIKYASQSISGIPSRFSGSGSGTDFTLSFNSVETEDFGMYFCQQSHSWPYTFGGGTKLEIK
B3: ch10B4 (antibody, human IgG1, V domains shown)
VH: EVQLQQSGPELVKPGASVKISCKTSGYTFTEYIMHWVKQSHGKSLEWIGGINPNNGGTTYNQKFKGKATLTVDKSSSTAYMELRSLTSEDSAVYYCARKGKDYFDWYFDVWGAGTTVTVSS
VL: QIVLTQSPTIMSASPGEKVTMTCSASSSVSYMHWYQQKSGTSPKRWIYDTSKLASGVPARFSGSGSGTSYSLTISSMEAEDAATYYCQQWSSNPLTFGAGTKLELK
B4: ch17A3 (antibody, human IgG1, V domains shown)
VH: QVQLQQSGPELVRPGVSVKISCKGSGYTFTDYALHWVKQSHAKSPQWIGLINTYSSNTNYNQKFKDKATMTVDKSSSTAYMELARLTSEDSAIYYCARGITAVVGTRYYAMDYWGQGTSVTVSS
VL: NIVLTQSPTTLSVTPGDTVSLSCRASQSISNNLHWYQQRSHESPRLIIKYTSQNISGIPSRFSGSGSGTDFTLSINSVETEDFGMYFCQQSYSWPLTFGAGTKLELKR
B5: MGC-018 (antibody, human IgG1, kappa, V domains shown)
VH: EVQLVESGGGLVKPGGSLRLSCAASGFTFSSYGMSWVRQAPGKGLEWVATINSGGSNTYYPDSLKGRFTISRDNAKNSLYLQMNSLRAEDTAVYYCARHDGGAMDYWGQGTTVTVSS
VL: DIQMTQSPSSLSASVGDRVTITCRASESIYSYLAWYQQKPGKAPKLLVYNTKTLPEGVPSRFSGSGSGTDFTLTISSLQPEDFATYYCQHHYGTPPWTFGQGTRLEIKR
B6: hz17A3-14 (antibody, human IgG1, kappa, V domains shown)
VH: EVQLVQSGAEVKKPGASVKVSCKASGYTFTDYALHWVRQAPGQGLEWMGLINTYSSNTNYNQKFKDRVTMTRDTSISTAYMELSRLRSEDTAVYYCARGITAVVGTRYYAMDYWGQGTLVTVSS
VL: EIVLTQSPGTLSLSPGERATLSCRASQSISNNLHWYQQKPGQAPRLLIKYTSQSISGIPDRFSGSGSGTDFTLTISRLEPEDFAVYYCQQSYSWPLTFGGGTKVEIKR

target: human B7-H3 naturally expressed on the surface of tumor cells (human) (UniProt Q5ZPR3); test: FACS on A431 cells
Sequence (Q5ZPR3 29-534): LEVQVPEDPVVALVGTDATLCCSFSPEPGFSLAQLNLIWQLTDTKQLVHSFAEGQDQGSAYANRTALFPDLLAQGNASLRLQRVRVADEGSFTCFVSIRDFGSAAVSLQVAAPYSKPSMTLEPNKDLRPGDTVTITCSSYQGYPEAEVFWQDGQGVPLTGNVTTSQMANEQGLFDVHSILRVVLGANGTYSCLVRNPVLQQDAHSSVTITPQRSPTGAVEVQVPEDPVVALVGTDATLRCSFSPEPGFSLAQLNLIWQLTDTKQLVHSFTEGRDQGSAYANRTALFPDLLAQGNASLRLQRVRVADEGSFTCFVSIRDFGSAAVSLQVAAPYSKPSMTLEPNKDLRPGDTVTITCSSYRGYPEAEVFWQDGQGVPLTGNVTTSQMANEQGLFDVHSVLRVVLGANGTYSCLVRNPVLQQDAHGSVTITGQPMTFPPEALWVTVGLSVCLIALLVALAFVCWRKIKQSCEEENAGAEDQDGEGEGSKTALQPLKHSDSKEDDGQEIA

Q: For B1, which EC50 is on record?
A: Its EC50 is 0.374 µg/mL.

Q: For B2, which EC50 is on record?
A: Its EC50 is 0.137 µg/mL.

Q: With B3 as the binder, how does the EC50 read?
A: The EC50 was 0.203 µg/mL.

Q: For B4, which EC50 is on record?
A: Its EC50 is 0.101 µg/mL.

target: human B7-H3 naturally expressed on the surface of tumor cells (human) (UniProt Q5ZPR3); test: FACS on SKVO3 cells

Q: How did the EC50 turn out when B1 was run?
A: Its EC50 is 0.191 µg/mL.

Q: How did the EC50 turn out when B5 was run?
A: The EC50 was 0.0565 µg/mL.

Q: How did the EC50 turn out when B6 was run?
A: The EC50 was 0.0441 µg/mL.

From US20250269047A1
